Tests used:
[1] = biological target: murine VISTA expressed on EL4 cells (EL4-mVISTA) (murine) (UniProt Q9D659); assay: flow cytometry on EL4-mVISTA cells
[2] = biological target: murine OX40 expressed on cells (CHOK1-mOX40) (murine) (UniProt P47741); assay: flow cytometry on CHOK1-mOX40 cells
hOX40-His (human) = hOX40-His (human) (UniProt P43489); assay: SPR (BioRad ProteOn XPR 360) per Example 5; FIG. 5 legend says biolayer interferometry (Octet); hOX40-His as ligand, analyte at 66.7 nM
hOX40-His (human), sequence (P43489 29-216 limits assumed): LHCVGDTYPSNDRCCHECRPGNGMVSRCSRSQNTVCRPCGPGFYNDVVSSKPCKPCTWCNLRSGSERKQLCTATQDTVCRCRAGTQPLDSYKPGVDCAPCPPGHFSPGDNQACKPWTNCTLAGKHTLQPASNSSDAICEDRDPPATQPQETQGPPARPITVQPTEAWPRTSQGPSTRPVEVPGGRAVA

murine VISTA expressed on EL4 cells (EL4-mVISTA) (murine), sequence (Q9D659 33-308): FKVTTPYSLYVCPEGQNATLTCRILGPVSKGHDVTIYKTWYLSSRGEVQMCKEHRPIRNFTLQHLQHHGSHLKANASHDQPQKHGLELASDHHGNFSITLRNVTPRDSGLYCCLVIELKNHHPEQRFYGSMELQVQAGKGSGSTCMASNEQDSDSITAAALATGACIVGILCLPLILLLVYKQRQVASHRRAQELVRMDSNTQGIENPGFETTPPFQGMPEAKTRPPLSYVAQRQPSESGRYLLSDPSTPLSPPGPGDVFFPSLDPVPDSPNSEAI
murine OX40 expressed on cells (CHOK1-mOX40) (murine), sequence (P47741 20-272): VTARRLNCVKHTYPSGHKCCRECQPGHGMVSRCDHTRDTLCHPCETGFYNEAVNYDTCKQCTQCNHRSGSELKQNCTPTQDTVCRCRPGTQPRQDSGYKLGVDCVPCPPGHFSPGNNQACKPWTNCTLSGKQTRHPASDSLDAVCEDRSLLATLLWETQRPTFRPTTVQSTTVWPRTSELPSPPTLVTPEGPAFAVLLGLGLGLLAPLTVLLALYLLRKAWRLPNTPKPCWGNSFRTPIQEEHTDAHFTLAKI

| Substance | EC50 [1] [nM] | EC50 [2] [nM] | Kd (hOX40-His (human)) [nM] | koff (hOX40-His (human)) [s⁻¹] | kon (hOX40-His (human)) [M⁻¹ s⁻¹] |
| --- | --- | --- | --- | --- | --- |
| murine VSIG8-Fc-OX40L chimeric protein (from UniProt Q6P3A4 22-262; P43488 51-198) (Fc fusion) | 56 | 16 | – | – | – |
| tavolixumab (an anti-human OX40 antibody) | – | – | 0.152 | 5.03e-05 | 332000 |

Reference: patent US20200071378A1
